Experimental data: US8987414 (AILERON THERAPEUTICS, dated 2015)
Each block holds one binder with its values, some of them ahead of it. Bridge positions count the residues as written; N and C are the ends. Square brackets hold non-standard residues; d marks the D form. $4rn6 = Alpha-Me R-azide 1,4 triazole (6 carbon), forms a triazole cross-link with a second residue in the same molecule; $4a5 = Alpha-Me alkyne 1,4 triazole (5 carbon), forms a triazole cross-link with a second residue in the same molecule; $5rn6 = Alpha-Me R-azide 1,5 triazole (6 carbon); $5a5 = Alpha-Me alkyne 1,5 triazole (5 carbon); Cba = N[C@@H](CC1CCC1)C(=O)O

How the values were obtained:
[1] = target: T1, MDM2 (In-house, 41 kD) (UniProt Q00987 1-138, limits assumed); test: competitive fluorescence polarization vs FAM-labeled linear peptide; grade of Ki (MDM2); scale in paragraph 664: ++ = >100 and <=1000 nM
T1 construct: Construct used in the FP assays is described only as in-house, 41 kD; also called HDM2

[2] = target: T1, MDM2 (In-house, 41 kD); test: competitive fluorescence polarization vs FAM-labeled linear peptide; grade of Ki (MDM2); scale in paragraph 664: ++++ = <=10 nM
[3] = target: T2, MDMX (In-house, 40 kD) (UniProt O15151 1-134, limits assumed); test: competitive fluorescence polarization vs FAM-labeled linear peptide; grade of Ki (MDMX); scale in paragraph 664: ++++ = <=10 nM
T2 construct: Construct used in the FP assays is described only as in-house, 40 kD; also called MDM4
T2 sequence (looked up): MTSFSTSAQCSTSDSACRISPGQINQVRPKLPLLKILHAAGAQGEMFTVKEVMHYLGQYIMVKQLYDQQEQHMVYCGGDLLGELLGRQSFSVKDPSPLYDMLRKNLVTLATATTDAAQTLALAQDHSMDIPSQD
Experimental: (§1) The assay is performed according to the following general protocol: 1. Dilute MDMX (In-house, 40 kD) into FP buffer (High salt buffer-200 mM Nacl, 5 mM CHAPS, pH 7.5.) to make 300 nM (2×) working stock solution. 2. Add 20 µl of 300 nM (2×) of protein stock solution into each well of 96-well black HE microplate (Molecular Devices) 3. […] Then, dilute from 100 µM to 10 µM with water (dilution 1:10) and then dilute with FP buffer from 10 µM to 40 nM (dilution 1:250). This is the working solution which will be a 10 nM concentration in well (dilution 1:4). […] 4. Make unlabeled peptide dose plate with FP buffer starting with 5 µM (final) of peptide and making 5 fold serial dilutions for 6 points using following dilution scheme. 5. Dilute 10 mM (in 100% DMSO) with DMSO to 5 mM (dilution 1:2). Then, dilute from 5 mM to 500 µM with H_2O (dilution 1:10) and then dilute with FP buffer from 500 µM to 20 µM (dilution 1:25). Making 5 fold serial dilutions from 20 µM (4×) for 6 points. 6. Transfer 10 µl of serial diluted unlabeled peptides to each well which is filled with 20 µl of 300 nM of protein. 7.

[4] = target: T1, MDM2 (In-house, 41 kD); test: competitive fluorescence polarization vs FAM-labeled linear peptide; grade of IC50 (MDM2); scale in paragraph 664: ++++ = <=10 nM
[5] = target: T2, MDMX (In-house, 40 kD); test: competitive fluorescence polarization vs FAM-labeled linear peptide; grade of IC50 (MDMX); scale in paragraph 664: ++++ = <=10 nM
Experimental: as §1

[6] = target: T2, MDMX (In-house, 40 kD); test: competitive fluorescence polarization vs FAM-labeled linear peptide; grade of IC50 (MDMX); scale in paragraph 664: +++ = >10 and <=100 nM
Experimental: as §1

[7] = target: T2, MDMX (In-house, 40 kD); test: competitive fluorescence polarization vs FAM-labeled linear peptide; grade of Ki (MDMX); scale in paragraph 664: +++ = >10 and <=100 nM
Experimental: as §1

[8] = target: T1, MDM2 (In-house, 41 kD); test: competitive fluorescence polarization vs FAM-labeled linear peptide; grade of IC50 (MDM2); scale in paragraph 664: +++ = >10 and <=100 nM
[9] = target: T2, MDMX (In-house, 40 kD); test: competitive fluorescence polarization, Ki (MDMX)
Experimental: as §1

[10] = target: T1, MDM2 (In-house, 41 kD); test: competitive fluorescence polarization, Ki (MDM2)

T1 sequence (Q00987 1-138 limits assumed): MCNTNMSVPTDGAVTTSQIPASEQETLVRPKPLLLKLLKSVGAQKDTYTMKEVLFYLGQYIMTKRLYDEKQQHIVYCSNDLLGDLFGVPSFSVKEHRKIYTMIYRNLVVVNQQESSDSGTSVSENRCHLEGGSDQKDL

Ki [1]: 100 to 1000 nM
B1: SP-450 (peptide)
peptide: Ac-LTF[$4rn6]AYWAQL[$4a5]AAAAA[dA]-NH2
modifications: triazole 4-11
notes: Triazole-crosslinked macrocycle of Formula I; also called Ac-LTF$4rn6AYWAQL$4a5AAAAAa-NH2

Ki [2]: ≤ 10 nM
Ki [3]: ≤ 10 nM
IC50 [4]: ≤ 10 nM
IC50 [5]: ≤ 10 nM
B2: SP-449 (peptide)
peptide: LTFXAYWAQLXAAXA
modifications: N-terminal acetyl (Ac); position 4 = $4rn6 (alpha-Me R-azide 1,4 triazole, 6 carbon) crosslinked to position 11 = $4a5 (alpha-Me alkyne 1,4 triazole, 5 carbon); position 14 = Nle (norleucine); C-terminal amide (NH2)
notes: Triazole-crosslinked macrocycle of Formula I; also called Ac-LTF$4rn6AYWAQL$4a5AANleA-NH2

IC50 [6]: 10 to 100 nM
Ki [7]: 10 to 100 nM
Ki [2]: ≤ 10 nM
IC50 [8]: 10 to 100 nM
B3: SP-917 (peptide)
peptide: LTFCAYWAQLCAAAAAA
modifications: N-terminal acetyl (Ac); position 4 = %cs7 (alpha-methyl-D-cysteine) connected by an i to i+7 seven-methylene bis-thioether crosslinker to position 11 = %c7 (alpha-methyl-L-cysteine); position 17 = D-alanine (a); C-terminal amide (NH2)
notes: Thioether-crosslinked macrocycle of Formula II; also called Ac-LTF%cs7AYWAQL%c7AAAAAa-NH2

IC50 [6]: 10 to 100 nM
Ki [2]: ≤ 10 nM
IC50 [8]: 10 to 100 nM
Ki [3]: ≤ 10 nM
B4: SP-916 (peptide)
peptide: LTFCAYWAQLCAAXA
modifications: N-terminal acetyl (Ac); position 4 = %cs7 (alpha-methyl-D-cysteine) connected by an i to i+7 seven-methylene bis-thioether crosslinker to position 11 = %c7 (alpha-methyl-L-cysteine); position 14 = Nle (norleucine); C-terminal amide (NH2)
notes: Thioether-crosslinked macrocycle of Formula II; also called Ac-LTF%cs7AYWAQL%c7AANleA-NH2

Ki [9]: > 1000 nM
Ki [10]: > 1000 nM
B5: SP-459 (peptide)
peptide: Ac-LTA[$5rn6]EYWAQ[Cba][$5a5]SAA-NH2
modifications: triazole 4-11
notes: also called Ac-LTA$5rn6EYWAQCba$5a5SAA-NH2

Ki [9]: > 1000 nM
Ki [10]: > 1000 nM
B6: SP-460 (peptide)
peptide: Ac-LTA[$4rn6]EYWAQ[Cba][$4a5]SAA-NH2
modifications: triazole 4-11
notes: also called Ac-LTA$4rn6EYWAQCba$4a5SAA-NH2
